The target of experiment [1] is T1, cynomolgus CD3 epsilon (cynomolgus monkey, UniProt Q95LI5 22-117, limits assumed).
T1 construct: also called cyCD3e
T1 sequence (looked up): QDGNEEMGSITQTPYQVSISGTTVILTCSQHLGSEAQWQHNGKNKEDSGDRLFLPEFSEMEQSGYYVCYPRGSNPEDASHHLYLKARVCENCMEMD
The experiment in a line: Octet, uTCE.

In experiment [2] the target is T2, human CD3 epsilon (human, UniProt P07766 23-126, limits assumed).
T2 construct: also called huCD3e
Kind of experiment: Octet, uTCE.

In experiment [3] the target is T3, human PSMA (human, UniProt Q04609 44-750, limits assumed).
T3 construct: other Octet runs used human PSMA-Fc; also called huPSMA; prostate-specific membrane antigen
Kind of experiment: Octet, uTCE.

In experiment [4] the target is T4, cynomolgus monkey PSMA (cynomolgus monkey, UniProt A0A2K5VNZ0 44-750).
T4 construct: also called cyPSMA; cyno PSMA
The experiment in a line: Octet, uTCE.

In experiment [5] the target is T3, human PSMA. The experiment in a line: Biacore, uTCE.
Experiment [6] concerns the target T4, cynomolgus monkey PSMA. Kind of experiment: Biacore, uTCE.
Experiment [7] concerns the target T1, cynomolgus CD3 epsilon. Kind of experiment: Biacore, uTCE.
Experiment [8] has as its target T2, human CD3 epsilon. Kind of experiment: Biacore, uTCE.
The target of experiment [9] is T2, human CD3 epsilon. The experiment in a line: Octet, crude lysate. Here is the method: Pool 2 consisted of paTCE molecules each containing PSMA.262 and one of 64 CD3.23 mutation combination variants. Stability and affinity of the individually expressed molecules in the form of crude lysate was evaluated by Octet. […] The binding of these anti-CD3 molecules (CD3.227, CD3.228, CD3.229 and CD3.230) to human and cynomolgus CD3 was measured by Octet and the Tₘ was measured by Differential Scanning Fluorimetry. All variants were paired with PSMA.262 except for CD3.23 which was paired with PSMA.5.

Numbering of substitutions follows the chain as printed.

T2 sequence (P07766 23-126 limits assumed): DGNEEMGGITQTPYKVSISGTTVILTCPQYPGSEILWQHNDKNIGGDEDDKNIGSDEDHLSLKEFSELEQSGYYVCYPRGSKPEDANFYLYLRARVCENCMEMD
T3 sequence (Q04609 44-750 limits assumed): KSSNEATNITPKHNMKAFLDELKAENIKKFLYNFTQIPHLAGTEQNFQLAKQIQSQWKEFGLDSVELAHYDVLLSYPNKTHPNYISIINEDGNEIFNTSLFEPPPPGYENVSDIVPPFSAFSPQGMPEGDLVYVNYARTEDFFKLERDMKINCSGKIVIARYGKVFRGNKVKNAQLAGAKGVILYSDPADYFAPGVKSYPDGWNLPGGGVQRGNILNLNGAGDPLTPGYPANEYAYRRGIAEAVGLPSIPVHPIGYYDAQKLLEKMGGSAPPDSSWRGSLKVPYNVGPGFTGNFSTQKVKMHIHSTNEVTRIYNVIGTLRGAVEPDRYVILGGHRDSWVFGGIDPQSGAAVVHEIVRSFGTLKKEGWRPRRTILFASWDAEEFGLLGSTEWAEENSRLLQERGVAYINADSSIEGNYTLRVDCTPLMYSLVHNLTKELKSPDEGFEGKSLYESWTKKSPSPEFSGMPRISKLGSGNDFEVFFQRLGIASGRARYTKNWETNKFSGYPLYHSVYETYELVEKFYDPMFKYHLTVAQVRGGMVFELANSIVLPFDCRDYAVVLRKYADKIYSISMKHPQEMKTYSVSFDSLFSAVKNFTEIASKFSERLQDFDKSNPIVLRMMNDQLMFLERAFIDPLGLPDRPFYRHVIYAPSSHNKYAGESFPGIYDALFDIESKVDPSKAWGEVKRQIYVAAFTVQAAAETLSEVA

B1: uTCE from AC3445 (PSMA.119-CD3.23) (bispecific antibody)
chain: GTSESATPESQVQLVESGGGVVQPGRSLRLSCAASGRTFGIYVMGWVRQAPGKEREFVAAISWSGSNRKVSDSVKGRFTISRDNSKNTLYLQMNSLRAEDTAVYYCAASNRLYGRTWYDFNESDYWGQGTQVTVSSGGGGSGGGSELVVTQEPSLTVSPGGTVTLTCRSSNGAVTSSNYANWVQQKPGQAPRGLIGGTNKRAPGTPARFSGSLLGGKAALTLSGVQPEDEAVYYCALWYPNLWVFGGGTKLTVLSESATPESGPGTSPGATPESGPGTSESATPEVQLLESGGGIVQPGGSLKLSCAASGFTFNTYAMNWVRQAPGKGLEWVARIRSKYNNYATYYADSVKDRFTISRDDSKNTVYLQMNNLKTEDTAVYYCVRHENFGNSYVSWFAHWGQGTLVTVSSGTATPESGPG
notes: release-segment residues left at the ends not specified
For B1, the Kd in [1] came to 40 nM; in [2], 34.8 nM; in experiment [3], 6.2 nM; in experiment [4], 47.5 nM.

B2: uTCE from AC3934 (PSMA.262-CD3.228) (bispecific antibody)
chain: GTSESATPESQVQLVESGGGVVQPGRSLRLSCAASGRTFGIYVWGWVRQAPGKEREFVGAISWSGSNRKVSDSVKGRFTISRDNSKNTLYLQMNSLRAEDTAVYYCAASNKLYGRTWYDFNESDYWGQGTQVTVSSGGGGSGGGSELVVTQEPSLTVSPGGTVTLTCRSSNGAVTSSNYANWVQQKPGQAPRGLIGGTNKRAPGTPARFSGSLLGGKAALTLSGVQPEDEAVYYCALWYPNLWVFGGGTKLTVLSESATPESGPGTSPGATPESGPGTSESATPEVQLVESGGGIVQPGGSLRLSCAASGFTFSTYAMNWVRQAPGKGLEWVGRIRTKRNNYATYYADSVKGRFTISRDDSKNTVYLQMNSLKTEDTAVYYCVRHENFGNSYVSWFAHWGQGTLVTVSSGTATPESGPG
notes: release-segment residues left at the ends not specified; also called AMX500-P7 uTCE
For the molecule B2, the Kd stood at 0.5 nM in experiment [5]; 13 nM in [6]; 33.7 nM in experiment [1]; 26.6 nM in experiment [2]; 1.6 nM in experiment [3]; 13.1 nM in experiment [4]. In addition, the Kd in [7] was found to be 10.4 nM; in [8] it was 9.83 nM.

B3: uTCE from AC3928 (PSMA.350-CD3.23) (bispecific antibody)
chain: B1 chain with M44W, V47F, A59G, I61M, R111K, L112E
notes: release-segment residues left at the ends not specified; also called AMX500-P6 uTCE
Turning to B3, the dissociation constant (Kd) amounted to 19 nM in experiment [5]; 354 nM in experiment [6]; 44.9 nM in experiment [1]; 43 nM in experiment [2]; 13.2 nM in experiment [3]; 198 nM in experiment [4]. The Kd in experiment [7] was 26.6 nM; in [8], 27.3 nM.

B4: CD3.218 (AC3649) (bispecific antibody, V domains shown)
VH: EVQLVESGGGIVQPGGSLRLSCAASGFTFSTYAMNWVRQAPGKGLEWVGRIRSKYNNYATTYADSVKGRFTISRDDSKNTVYLQMNSLKTEDTAVYYCVRHENFGNSYVSWFAHWGQGTLVTVSS
VL: ELVVTQEPSLTVSPGGTVTLTCRSSNGAVTSSNYANWVQQKPGQAPRGLIGGTNKRAPGTPARFSGSLLGGKAALTLSGVQPEDEAVYYCALWYPNLWVFGGGTKLTVL
notes: paTCE with PSMA.262 VHH; crude lysate
As for B4, the equilibrium dissociation constant (Kd) in experiment [9] was 4.4 nM.

B5: CD3.251 (AC3682) (bispecific antibody, V domains shown)
VH: B4 VH with S30N, Y55R, G68D
VL: B4 VL
notes: as for B4
As for B5, the Kd in [9] stood at 32.9 nM.

These data come from patent publication US20250188184A1 (published 2025).
